Assay [1] addresses full-length recombinant tau (human) (UniProt P10636). Put plainly: sandwich immuno-PCR, Tau1 capture on plate, HT7-DNA conjugate detection, recombinant tau at 16 pg/ml in synthetic serum.
For assay [2] the target is unchanged. As to the kind of experiment: sandwich immuno-PCR, Tau1 capture on plate, HT7-DNA conjugate detection, recombinant tau at 400 pg/ml in synthetic serum.
The target is the same in assay [3]. As to the kind of experiment: sandwich immuno-PCR, Tau1 capture on plate, HT7-DNA conjugate detection, recombinant tau at 0.64 pg/ml in synthetic serum.
For assay [4] the target is unchanged. As to the kind of experiment: sandwich immuno-PCR, Tau1 capture on plate, HT7-DNA conjugate detection, recombinant tau at 3.2 pg/ml in synthetic serum.
For assay [5] the target is unchanged. Put plainly: sandwich immuno-PCR, Tau1 capture on plate, HT7-DNA conjugate detection, recombinant tau at 2000 pg/ml in synthetic serum.
The target is the same in assay [6]. As to the kind of experiment: sandwich immuno-PCR, Tau1 capture on plate, HT7-DNA conjugate detection, recombinant tau at 80 pg/ml in synthetic serum.
The target is the same in assay [7]. As to the kind of experiment: sandwich immuno-PCR, Tau1 capture on plate, HT7-DNA conjugate detection, recombinant tau at 10000 pg/ml in synthetic serum.

Sequence of UniProt P10636 (P10636 other isoform, or with tags, fused parts or gaps): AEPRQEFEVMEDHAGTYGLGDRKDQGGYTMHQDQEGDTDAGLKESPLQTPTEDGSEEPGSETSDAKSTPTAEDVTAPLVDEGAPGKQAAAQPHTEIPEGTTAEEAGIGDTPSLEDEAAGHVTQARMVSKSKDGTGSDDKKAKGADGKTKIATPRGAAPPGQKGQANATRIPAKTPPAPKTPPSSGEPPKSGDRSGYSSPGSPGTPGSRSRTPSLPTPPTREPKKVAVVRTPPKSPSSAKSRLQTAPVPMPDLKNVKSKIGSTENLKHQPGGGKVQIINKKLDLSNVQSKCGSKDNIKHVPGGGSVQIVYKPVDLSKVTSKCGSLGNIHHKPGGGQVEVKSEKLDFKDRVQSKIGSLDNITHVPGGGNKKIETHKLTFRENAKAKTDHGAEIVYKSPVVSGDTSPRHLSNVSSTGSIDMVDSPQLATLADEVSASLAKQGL

On to Tau1 (antibody), for which the delta counts in assay [1] is 21.7 delta counts; in assay [2], 26.3 delta counts; in assay [3], 20.3 delta counts; in assay [4] it was 20.6 delta counts; in assay [5], 29 delta counts; in assay [6] it was 23.6 delta counts. Also, the delta counts in assay [7] stood at 31.7 delta counts.
